± gives the uncertainty stated by the source.
Assay: self-splicing fitness, log relative to wild type (ln ratio); higher = more splicing; Tetrahymena group I intron in knt gene, E. coli kanamycin selection, DiMSum; sequences stand for … in CUCUCU…GGAGGGAAAAGUUAUCAGGCAUGCACCUGGUAGCUAGUCUUUAAACCAAUAGAUUGCAUCGGUUUAAAAGGCAAGACCGUCAAAUUGCGGGAAAGGGGUCAACAGCCGUUCAGUACCAAGUCUCAGGGGAAACUUUGAGAUGGCCUUGCAAAGGGUAUGGUAAUAAGCUGACGGACAUGGUCCUAACCACGCAGCCAAGUCCUAAGUCAACAGAUCUUCUGUUGAUAUGGAUGCAGUUCACAGACUAAAUGUCGGUCGGGGAAGAUGUAUUCUUCUCAUAAGAUAUAGUCGGACCUCUCCUUAAUGGGAGCUAGCGGAUGAAGUGAUGCAACACUGGAGCCGCUGGGAACUAAUUUGUAUGCGAAAGUAUAUUGAUUAGUUUUGGAGUACUCGUGGUCG
Procedure, shortened: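 Six replicate transformations of E. coli BL21(DE3) with a pET-22b(+) library were grown overnight at 37°C or 30°C. The library randomised all eight P1ex-region intron nucleotides, the intron lying in the knt kanamycin-resistance gene, and plates were LB agar with or without 25 μg/mL kanamycin plus 100 μg/mL carbenicillin, 50 μM IPTG and 0.2% rhamnose. Pooled colonies were amplicon-sequenced on an Illumina HiSeq 2500, and fitness is the DiMSum error-weighted combination of wild-type-normalised replicate fold changes, kanamycin versus none.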

Sequence | self-splicing fitness (ln) (30 °C) | self-splicing fitness (ln) (37 °C)
UUGUAGCAAUAUUACGCUUA | -1.77 ± 0.25 | -1 ± 0.2
UUGUAGCAAUAUUACGGACC | -2.38 ± 0.25 | -1.46 ± 0.34
UUGUAGCAAUAUUACGGACU | -1.65 ± 0.14 | -0.723 ± 0.16
UUGUAGCAAUAUUACGGAGC | -3.08 ± 0.25 | -2.38 ± 0.29
UUGUAGCAAUAUUACGGCAG | -0.0514 ± 0.14 | 0.374 ± 0.18
UUGUAGCAAUAUUACGGCGA | 0.174 ± 0.1 | 0.227 ± 0.14
UUGUAGCAAUAUUACGGUCA | -0.412 ± 0.17 | -0.486 ± 0.2
UUGUAGCAAUAUUACGGUCG | -0.458 ± 0.12 | -0.593 ± 0.15
UUGUAGCAAUAUUACGGUGC | -2.37 ± 0.45 | -2.07 ± 0.34
UUGUAGCAAUAUUACGUAAG | -2.25 ± 0.17 | -1.02 ± 0.16
UUGUAGCAAUAUUACGUCAA | -0.947 ± 0.16 | -0.538 ± 0.16
UUUAAGCAAUAUUACGACAG | -0.664 ± 0.15 | -0.475 ± 0.2
UUUAAGCAAUAUUACGACCC | -1.3 ± 0.31 | 0.0123 ± 0.28
UUUAAGCAAUAUUACGACGA | 0.228 ± 0.089 | 0.29 ± 0.11
UUUAAGCAAUAUUACGAGAU | -3.92 ± 0.26 | -0.782 ± 0.16
UUUAAGCAAUAUUACGAGCG | -0.94 ± 0.14 | -0.4 ± 0.17
UUUAAGCAAUAUUACGAUAA | -0.773 ± 0.1 | 0.228 ± 0.13
UUUAAGCAAUAUUACGAUCA | -0.491 ± 0.1 | 0.00531 ± 0.11
UUUAAGCAAUAUUACGAUGA | 0.318 ± 0.13 | -0.175 ± 0.14
UUUAAGCAAUAUUACGCCCU | -0.119 ± 0.24 | 0.0801 ± 0.28
UUUAAGCAAUAUUACGCCUG | -0.642 ± 0.14 | -0.13 ± 0.14
UUUAAGCAAUAUUACGCGCU | -1.15 ± 0.18 | -0.609 ± 0.2
UUUAAGCAAUAUUACGCGGC |  | -2.78 ± 0.31
UUUAAGCAAUAUUACGCGGG | -1.81 ± 0.13 | -1.63 ± 0.14

Sequence | self-splicing fitness (ln) (30 °C) | self-splicing fitness (ln) (37 °C)
UUUAAGCAAUAUUACGCGUG | -1.15 ± 0.13 | -0.368 ± 0.14
UUUAAGCAAUAUUACGCUCA | -0.755 ± 0.15 | -0.395 ± 0.17
UUUAAGCAAUAUUACGCUGU | -3.57 ± 0.21 | -1.79 ± 0.18
UUUAAGCAAUAUUACGGACG | -0.647 ± 0.15 | 0.235 ± 0.19
UUUAAGCAAUAUUACGGCAU | -1.59 ± 0.11 | -0.239 ± 0.12
UUUAAGCAAUAUUACGGCUG | -0.528 ± 0.13 | -0.292 ± 0.16
UUUAAGCAAUAUUACGGGAA | -1.63 ± 0.094 | -0.806 ± 0.095
UUUAAGCAAUAUUACGUAGA | -0.521 ± 0.098 | 0.0733 ± 0.14
UUUAAGCAAUAUUACGUCUU | -2.57 ± 0.15 | -1.81 ± 0.16
UUUAAGCAAUAUUACGUGUA | -1.88 ± 0.12 | -0.799 ± 0.12
UUUAAGCAAUAUUACGUUAC | -3.76 ± 0.3 | -3.05 ± 0.26
UUUAAGCAAUAUUACGUUCU | -1.53 ± 0.11 | -0.963 ± 0.11
UUUAAGCAAUAUUACGUUGC | -3.26 ± 0.43 | -2.97 ± 0.38
UUUCAGCAAUAUUACGACUG | -2.89 ± 0.2 | -1.53 ± 0.18
UUUCAGCAAUAUUACGACUU | -0.723 ± 0.077 | -0.00938 ± 0.099
UUUCAGCAAUAUUACGCAUG | -0.765 ± 0.093 | -0.0959 ± 0.11
UUUCAGCAAUAUUACGCCUG | -1.95 ± 0.12 | -1.02 ± 0.11
UUUCAGCAAUAUUACGCGCC | -1.72 ± 0.24 | -0.992 ± 0.37
UUUCAGCAAUAUUACGCUCA | -0.608 ± 0.17 | 0.404 ± 0.18
UUUCAGCAAUAUUACGCUCC | -1.69 ± 0.22 | -1.02 ± 0.29
UUUCAGCAAUAUUACGCUGG | -3.94 ± 0.3 | -1.77 ± 0.33
UUUCAGCAAUAUUACGCUGU | -3.52 ± 0.13 | -2.19 ± 0.21
UUUCAGCAAUAUUACGGCAA | -0.476 ± 0.089 | -0.0559 ± 0.11
